Measurements: publication PMC9142594

Experiments:
Test in all cases: SPR; Biacore T200; His-tagged histones immobilised on sensor chip NTA; AGEs at 6.25, 12.5, 25, 50 and 100 µg/ml, single-cycle kinetics; 10 mM HEPES, 150 mM NaCl, 0.05% Tween-20; 25 °C; 30 µl/min
[1] = target: His-tagged human histone H2A (human) (UniProt P04908)
[2] = target: His-tagged human histone H3 (human) (UniProt P68431)
[3] = target: His-tagged human histone H2B (human) (UniProt P06899)

Substance “advanced glycation end products (AGEs): bovine serum albumin modified with dehydroascorbic acid (DHA) (from UniProt P02769 25-607) (ligand)” has a Kd [1] of 85.5 nM, a Kd [2] of 96.5 nM and a Kd [3] of 67.2 nM.
